Test results from patent US20230295327A1 (published 2023).
Read-outs that look alike come from different tables or passages of the source.

T1: recombinant human CD20 (human, UniProt P11836 1-297)
T1 chain: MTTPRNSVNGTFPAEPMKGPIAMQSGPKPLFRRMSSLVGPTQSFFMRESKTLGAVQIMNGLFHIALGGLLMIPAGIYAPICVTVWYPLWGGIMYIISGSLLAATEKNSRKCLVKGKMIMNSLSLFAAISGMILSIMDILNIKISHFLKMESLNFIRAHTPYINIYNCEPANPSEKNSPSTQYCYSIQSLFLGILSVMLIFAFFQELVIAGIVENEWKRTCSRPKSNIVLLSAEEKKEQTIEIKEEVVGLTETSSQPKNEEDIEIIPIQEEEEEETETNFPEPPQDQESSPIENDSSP

B1: T2.01 (anti-hu CD20/hu IL-12, hu IgG1) (bispecific antibody)
heavy: not shown
light: QIVLSQSPAILSASPGEKVTMTCRASSSVSYIHWFQQKPGSSPKPWIYATSNLASGVPVRFSGSGSGTSYSLTISRVEAEDAATYYCQQWTSNPPTFGGGTKLEIKRTVAAPSVFIFPPSDEQLKSGTASVVCLLNNFYPREAKVQWKVDNALQSGNSQESVTEQDSKDSTYSLSSTLTLSKADYEKHKVYACEVTHQGLSSPVTKSFNRGEC
chain: not shown
B2: T2.10 (anti-hu CD20/anti-hu CD20-hu IL-12, hu IgG1 (2 + 1)) (antibody)
heavy 1: not shown
heavy 2: not shown
light: B1 light
B3: T2.02 (anti-hu CD20/hu IL-12 mut1, hu IgG1) (bispecific antibody)
heavy: not shown
light: B1 light
chain: not shown
B4: T2.11 (anti-hu CD20/anti-hu CD20-hu IL-12 mut2, hu IgG1 (2 + 1)) (antibody)
heavy 1: not shown
heavy 2: not shown
light: B1 light
B5: T2.06 (anti-hu CD20/hu IL-12, hu IgG1 (2 + 1, HC scFv)) (bispecific antibody)
heavy: not shown
light: B1 light
chain: not shown
B6: T2.07 (anti-hu CD20/hu IL-12 mut2, hu IgG1 (2 + 1, HC scFv)) (bispecific antibody)
heavy: not shown
light: B1 light
chain: not shown
B7: T2.04 (anti-hu CD20/hu IL-12, hu IgG1 (2 + 1)) (bispecific antibody)
heavy: not shown
light: QIVLSQSPAILSASPGEKVTMTCRASSSVSYIHWFQQKPGSSPKPWIYATSNLASGVPVRFSGSGSGTSYSLTISRVEAEDAATYYCQQWTSNPPTFGGGTKLEIKGGGGSGGGGSGGGGSQIVLSQSPAILSASPGEKVTMTCRASSSVSYIHWFQQKPGSSPKPWIYATSNLASGVPVRFSGSGSGTSYSLTISRVEAEDAATYYCQQWTSNPPTFGGGTKLEIKRTVAAPSVFIFPPSDEQLKSGTASVVCLLNNFYPREAKVQWKVDNALQSGNSQESVTEQDSKDSTYSLSSTLTLSKADYEKHKVYACEVTHQGLSSPVTKSFNRGEC
chain: not shown
B8: T2.05 (anti-hu CD20/hu IL-12 mut2, hu IgG1 (2 + 1)) (bispecific antibody)
heavy: not shown
light: B7 light
chain: not shown
B9: Rituximab (anti-hu CD20 monoclonal antibody) (antibody, V domains shown)
VH: QVQLQQPGAELVKPGASVKMSCKASGYTFTSYNMHWVKQTPGRGLEWIGAIYPGNGDTSYNQKFKGKATLTADKSSSTAYMQLSSLTSEDSAVYYCARSTYYGGDWYFNVWGAGTTVTVSA
VL: QIVLSQSPAILSASPGEKVTMTCRASSSVSYIHWFQQKPGSSPKPWIYATSNLASGVPVRFSGSGSGTSYSLTISRVEAEDAATYYCQQWTSNPPTFGGGTKLEIKR
B10: T2.09 (anti-hu CD20/hu IL-12 mut2, hu IgG1 (2 + 1, LC scFv)) (bispecific antibody)
heavy: not shown
light: QIVLSQSPAILSASPGEKVTMTCRASSSVSYIHWFQQKPGSSPKPWIYATSNLASGVPVRFSGSGSGTSYSLTISRVEAEDAATYYCQQWTSNPPTFGGGTKLEIKRTVAAPSVFIFPPSDEQLKSGTASVVCLLNNFYPREAKVQWKVDNALQSGNSQESVTEQDSKDSTYSLSSTLTLSKADYEKHKVYACEVTHQGLSSPVTKSFNRGECGGGGSGGGGSGGGGSQVQLQQPGAELVKPGASVKMSCKASGYTFTSYNMHWVKQTPGRGLEWIGAIYPGNGDTSYNQKFKGKATLTADKSSSTAYMQLSSLTSEDSAVYYCARSTYYGGDWYFNVWGAGTTVTVSAGGGGSGGGGSGGGGSGGGGSQIVLSQSPAILSASPGEKVTMTCRASSSVSYIHWFQQKPGSSPKPWIYATSNLASGVPVRFSGSGSGTSYSLTISRVEAEDAATYYCQQWTSNPPTFGGGTKLEIK
chain: not shown
B11: T2.08 (anti-hu CD20/hu IL-12, hu IgG1 (2 + 1, LC scFv)) (bispecific antibody)
heavy: not shown
light: B10 light
chain: not shown

Key:
[1] = biological target: T2, IL-12 receptor beta 1-biotin (IL-12Rβ1-Biotin; Acrobiosystems) (human, UniProt P42701 24-545, biotin (site not stated)); assay: ELISA
recombinant human CD20 [2] = biological target: T1, recombinant human CD20; assay: SPR
recombinant human CD20 [3] = biological target: T1, recombinant human CD20; assay: SPR
recombinant human CD20 [4] = biological target: T1, recombinant human CD20; assay: SPR
[5] = biological target: T2, IL-12 receptor beta 1-biotin …; assay: ELISA; control, flat curve

Row | Binder | Kd (recombinant human CD20 [3]) | Kd (recombinant human CD20 [4]) | further results
1 | B1 |  |  | EC50 [1]: 16.2 nM; Kd (recombinant human CD20 [2]): 5.84 nM
2 | B2 | 16.6 nM |  | 
3 | B3 |  |  | EC50 [1]: 17.6 nM; Kd (recombinant human CD20 [2]): 7.2 nM
4 | B4 | 1390 nM |  | 
5 | B5 |  | 11.5 nM | 
6 | B6 |  | 2.84 nM | 
7 | B7 |  | 7.58 nM | 
8 | B8 |  | 2.88 nM | 
9 | B9 |  |  | EC50 [5]: 25.1 nM
10 | B10 | 3.67 nM |  | 
11 | B11 | 2.08 nM |  | 
